The data set can be described thus: soluble fraction after stress (log2 fold change); higher = more stays soluble; pooled small domains, quantitative proteomics. The conditions noted are these: stress: 75 degC.
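Note: 20 min heating vs room temperature control held 20 min.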

As for “HMLADTNIHTIALKHRLANEVVEQVRPFLPETATIRAYDNMLILKSDRATLANVEQLIKKLDT”, the “soluble fraction (log2)” value was 0.0428.

As for “HMLALVREQIERNVSNPTDEDIRKIRHDVMEVITRAGADAATVDIAIEIDSQKNILRAIATGATEL”, the “soluble fraction (log2)” value is -0.0966.

For “HMLAMHVVESVGGAEQFTKLQNFAKTQNADYQKMWNDTMNSGNVLAIKTMLSGIQSDMIAVQ”, the “soluble fraction (log2)” value was -0.276.

For the sequence “HMLAQDVIVKQDGGTILSKVLEIGTQEIAYKKWNSQDGPVYKIAKDQVLSVNYQNGEVDRFA”, the “soluble fraction (log2)” value is -0.00975.

Turning to “HMLAQISDEGAIGAVVARVLDAHPNEVARYHAGEEKVAKFLMGAAMRELRGKGDPAVVQRLLSEGLDARRV”, the “soluble fraction (log2)” value was -0.00832.

On to “HMLARPTANELVKEMQRRAKEQRTELPPDAARDLLERSGQDQFLLGNEVDKLAALSGYTTITREMVAQAGT”, for which the “soluble fraction (log2)” value amounted to 0.247.

With “HMLAVPADFAEKLQSLRSQLASDDLDASDAFGRLQPFIKALYPAQLEALRKAVDDFDFVEATRLIDQLPQ”, the “soluble fraction (log2)” value is -0.376.

For “HMLAYQRTYEKILEDLRNDVYPVNSLLPPEPKLEEIYHVSRTTVRRAIAQLADEGYVKVKQGYGTVVLKN”, the “soluble fraction (log2)” value was -2.02.

On to “HMLDEPPVSQTLTTYDREHMALYLRLLDSARDGADWREAVQILFGLDPTRDPLRSRHVHDTHLARARWM”, for which the “soluble fraction (log2)” value was -0.0384.

With “HMLDFGQEDSEAVSEIILVLGRYWMDFSHKKYPEAEGSALRHKGISHIFTVLKPYLTSATAQLIEQRLQQ”, the “soluble fraction (log2)” value is -0.0669.

Take “HMLDIQKKGENIAYIEGAGDVIPESLKQIGYHVVTIAPKDINAETLSRFDAVVVGIRAYNTVEDL”: the “soluble fraction (log2)” value came out at 0.0708.

With “HMLDKIRTYIDNSFTGVNETKKVKELKDELFENLKEKYNDQIQDGKTEQEAYNSVISGIGDLSELIESVK”, the “soluble fraction (log2)” value is at least 1.04.

As to “HMLDKKKHLEQGRKIIEDQLAKYKIQPSFDTLKKLSAYYGLNNKEQLYAQVGMGFLELENLDEILQ”, the “soluble fraction (log2)” value worked out at 0.307.

“HMLDLPVRTINGRQYYYYEVRNRETVYGLSKRLGVTREEIVRYNPSMADGLKRGAILYFPVDEFSDRI”: the “soluble fraction (log2)” value was -2.84.

With “HMLDLSDFEVVRDLYLSEQIWNVGDLIIARSKKDDTYKAWEIIRKGTNYVTGIDESHKVEKIWLHDILI”, the “soluble fraction (log2)” value is -1.15.

As to “HMLDSPHDDLNRKIVQMLQNDGRLPYKDIAEVLSVSEGTVRNRVQRMRDAGMLNIVALIDPMAI”, the “soluble fraction (log2)” value was -0.0197.

As to “HMLDTPLTARELDVLYLMRQRMSAKEIAKQLGIATMTVNRHAANLYRKLGVNTRWDAVYRAEEVGILPP”, the “soluble fraction (log2)” value is -1.45.

Turning to “HMLDVNLIFSRPGFSLSAAFTLHAGGITVLRGDSGSGKTTLADLLSGAIAPQKGRILSDGDIWFDAASGIN”, the “soluble fraction (log2)” value was 0.108.

Regarding “HMLDYITLSPQELGKLLSAGNGDAAMVYLYMKATGDVTLKQAETQLGMTNQNLAWAESLLKRLGLMD”, the “soluble fraction (log2)” value is -1.9.

Turning to “HMLDYKSALQELLQAQRRSRPRYEVISTEGPDHERVFEVAVWLDNEELGRGKGRSKREAEHQAAQAALTQL”, the “soluble fraction (log2)” value is -0.115.

Take “HMLDYQLQVFKDTLEANRKHRGQKIVFIHGKGEGVLRRALIHALNYQYKKFTYQDASFREYGYGATQVTI”: the “soluble fraction (log2)” value is -0.312.

On to “HMLEEIDYPEEQLQLLFAWSRDHVQSTPPGLPVVDDHVWHILVRGYGATDQRTEAFALLASYAGFP”, for which the “soluble fraction (log2)” value came out at 0.135.

For “HMLEIDPPVDEISVSRKAFYEAAGYKVNPYTHIPPRYRKEFEEHSFVVMSWPRELPEETYRKFDRYLRDV”, the “soluble fraction (log2)” value was found to be 0.0575.

As for “HMLEIRGFTVLLSDRGIVGIIEEIIQNPGQDLLRILSPEKREILVPLHSDLITGINKKKKTITMNLPDGL”, the “soluble fraction (log2)” value is -1.87.

Turning to “HMLELTGEEEFVIRTLTRQGDLHINALVVETDIPINRMISLLFELEMKGVVKALVGGVYHLLG”, the “soluble fraction (log2)” value is -2.45.

Consider “HMLELTVSDKMARLMAWRNRRRVNLSDQELHRIAAAPKQSPESILKMLPGFLQDSVPEIWAELTGGRP”, for which the “soluble fraction (log2)” value was -1.24.

For “HMLENSLDHIEGIGPKTKDTLLTYFKSVSKIKSANPSILAELIGAAKTKILLAAFEKEKTTS”, the “soluble fraction (log2)” value was -0.7.

“HMLENYEGFKQKILKLTGIDLSSYKERQMRRRIDSLIHRNNYDDYDEYFKALTQNSNLYDEFINYLTI”: the “soluble fraction (log2)” value was -0.823.

With “HMLEQEDMYGYQMIETLRERSEHSFDLKAGTLYPLLHALEQKGLITARDEASAAGRPRRYYHLTDAG”, the “soluble fraction (log2)” value is -0.354.

Regarding “HMLERPLFTPEQYGRFRGKEARIRLSNPVEGRKTLTGSIVEATEERIVVFVEEEEREVTVPFQWIKSGNL”, the “soluble fraction (log2)” value is -0.544.

Turning to “HMLESVMHSRIAEIISREGTAPAHMSMQEKIRVVHKLDADGILMMKGAVAEIADQLSVSVPTIYRYLNKPQ”, the “soluble fraction (log2)” value was -2.49.

As to “HMLETILQIGKDGVGENLVKQVNDALEARELIKGRVLDNNLELDARTAAQILAKATRSEVVQVIGTKFV”, the “soluble fraction (log2)” value was -0.00194.

Take “HMLEVTQTDVKMYTTSGTPVYAAPDLNSAIVVYLERFVNVTVTGITDNGFYRVNLNGDYYIPGPYLISSV”: the “soluble fraction (log2)” value is -3.92.

For “HMLEYIEPRTAVQIHGIKAKPELNGKRGMVMGYAPERMRYRVRIDVGEGTGGKESEEVYLKPENVIAVK”, the “soluble fraction (log2)” value was determined as 0.0615.

As for “HMLFKGDTREENVILEFLSKNGTTSSDAIIKQTGLSASEFNQAITMLELKGLALNNGGEKWSL”, the “soluble fraction (log2)” value was determined as 0.304.

“HMLGDAVLRQVLETIPEDPAVDYLELRRNTGMTEADLDRVLADLENLGVINKKRTVEQVLYWRT”: the “soluble fraction (log2)” value was -0.651.

Regarding “HMLGDAWSMLILRDAHSGFSRFDQFRKSLGIAPTMLTKRLSVLVDEGLLEKRQYSEHPPREEYVLTQAGQD”, the “soluble fraction (log2)” value was -0.0775.

For the sequence “HMLGERIRTLRKEIGMSVTELARRVKTSPSHISEIERGEKMPSLNLLVKIAKELKTSIDYLTGLVG”, the “soluble fraction (log2)” value is -0.498.

For the sequence “HMLGNIERALEMLQEVAATMDPVDIRLLLSMAQVESVRGNTEAAVKLIDEALVIDPGNERIEQIRLRVL”, the “soluble fraction (log2)” value was -0.482.

In the case of “HMLGRPDMSPIPEGSRNNDLHAWGFGRLANHPDNKRQIEADFFERGRISGLGDAEIRASWNSILRQLGHQ”, the “soluble fraction (log2)” value was determined as 0.0693.

Regarding “HMLGSVRTIRQVLDDGRLIVADGGGNPSVIRRSGALAHETFANGQRVIVDPSGRLALELLPD”, the “soluble fraction (log2)” value is 0.171.

As for “HMLGVLEYYNNGQKKSERTFKGGMQIYTEWYENGQMKAEERKWIDQLGSLKFLNLLSTEWDENGNEISRME”, the “soluble fraction (log2)” value was -1.55.

“HMLGYGEQEREAQKYLEMHTAFQADPSLQKMYLPENQYALISKVMEMTGIKNVKSYLTPPNEL”: the “soluble fraction (log2)” value is -0.193.

Regarding “HMLHVRSALMSELDGIEGIGEKRKRLLFDAFITRDAIAAATLEQLMAVKGMNRPSAEAVHKHFHG”, the “soluble fraction (log2)” value was -0.985.

Consider “HMLIELKIPSEWAGKSLHTLNLRQNYNVNVIGFRDEKSGKLNTHFDPSKKLPDEGIILVVADNRTLEKF”, for which the “soluble fraction (log2)” value was -0.7.

For “HMLIIDLPDFTNKKLSELQQWADANQITLKIVEKDVSSKPYDTILEQTPAKNKYEKIVKGSTMTVTVNIK”, the “soluble fraction (log2)” value is -0.965.

Consider “HMLINFPNKLKRLRLANNLTQQELANILETTKQAVSSYESGKSTPSLNSLIKLSEHFNISLDSLVFD”, for which the “soluble fraction (log2)” value was -0.038.

Take “HMLINIKTNSAVNVRSGPGMGFEVVNTYPSGYILQAKEMQKDGGDNVWYKVKDGWLSANYTIDI”: the “soluble fraction (log2)” value was -0.787.

Regarding “HMLINPLDILRNFNLSLYDDSRDSASNKEIDEIFESIKTNNSHIFSTLKAYRIPLPIASLIIKKIIKITLE”, the “soluble fraction (log2)” value was -0.891.

Consider “HMLISDENMLRDLVQAVLDENPKSVSDYKSGKTKAFGFLVGQTMKAVKGQADPMLVNKILTELLN”, for which the “soluble fraction (log2)” value was 0.236.

“HMLISYRVDALANEAGLSVDTIRYYQKLGILDPPKRTGRHSEYSPDHLERLIEIRRLADAGLTLSQISEI”: the “soluble fraction (log2)” value is -2.55.

“HMLKAKKIPVSDLEKFKGIVAEDVVSKAKALILPRGSNLSWLSNVAKKNLIAKLKAEGIEYISVYSS”: the “soluble fraction (log2)” value is -0.47.

Regarding “HMLKDGPIGAYADSVIRDIIEKMERFSKEHINVDMLKIHEKIMLIDEPIIRMALLDEFHRVSHDN”, the “soluble fraction (log2)” value was -2.47.

As for “HMLKEKETRALANFTNKFFGLDISEDLKPIALSELSKFKKTHKISNLEEFINSFQYDFQNEKILSLLDIFL”, the “soluble fraction (log2)” value is -1.34.

“HMLKFPIGTHVGKKKPSANLSLPNKHGVVIGHGERRNAKGAIMRFYIVETTHSSRPEEWAPGITYPL”: the “soluble fraction (log2)” value was -2.72.

For the sequence “HMLKHEEIQEYIKEQINSGTWKPKAKLPSLRDMSELFSTSIGTVLTAYSALEKKHIIYSIPRSGYYVLG”, the “soluble fraction (log2)” value was -4.48.

With “HMLKLEDIKKDAQVKGIVDGQIVRIVTVEPIGDHALTVYYKDHQGQFAERMLFRSDELNLELATA”, the “soluble fraction (log2)” value was -0.244.

For “HMLKLSGEESQQLALRLREELARRRITRQGLADAAKISISTLEQVLAGRRTFTLATIVRLEEGLGIKLL”, the “soluble fraction (log2)” value is -2.65.

For “HMLKNKSTGNINETKAILELALNHSHFKVFDNRDMTVTFKNLATQFTTMQRILVQMFFPLPAGVELIIE”, the “soluble fraction (log2)” value was 0.428.

With “HMLKNYATPEQRAQLDMLKDKGIIGENELMQLGKYPSQDKASEVLENHADAVKMLDSDEISNRAEAIRSHD”, the “soluble fraction (log2)” value was found to be 0.173.

On to “HMLKPQQTQRIYAMAARLGVLESGNKNDMLHTIVYRLTQKESIRSLNENEYKTVVSELAERLKL”, for which the “soluble fraction (log2)” value was -1.12.

On to “HMLKQLGRQEGRQEGAVDALRTVLALQIEQRFGPLDPTVQALIVAADIDALQRALSRVAVVSDLGAVFPP”, for which the “soluble fraction (log2)” value is -0.875.

In the case of “HMLKRLTVEFSAEMPKKMTSEQKEELASVLSEDPRPAYQNDENREYGLDYGEFSVKFKVKDGVLTVTSVTE”, the “soluble fraction (log2)” value was -0.0802.

Turning to “HMLLNLSPIETQVLRLIQQDKKVTYESIGKELTIGQTKVYKVLGHLKELNVIERIGGRTYGHWHILL”, the “soluble fraction (log2)” value is -1.33.

“HMLLNPFERLTERELEIADLYAKGYGNLEIANFLSIKQNTVSTYKKRIFEKLGIDNLVELIELIKNY”: the “soluble fraction (log2)” value turned out to be 0.265.

For the sequence “HMLLQTRQRHEALAALGYFKGDVAAAWGPASEEALRAAQAAFGITVDGKWGPQTEDAIQGALQV”, the “soluble fraction (log2)” value is -0.357.

Regarding “HMLLREKLESVLPFISVSALAKTYFKRSPQWFYQRLNGSIVNGKPIRFNDAELKTLAGALTDIGKKISQAA”, the “soluble fraction (log2)” value was -0.285.

Regarding “HMLLSEPSVLKFNDDNSYEIVSGFLTEYKDKIVKIERRYKKATVKITVAGEEKEIKVSFVEDTE”, the “soluble fraction (log2)” value was -1.43.

Regarding “HMLLSTHVVVAKEDVQIGTRLQPAMLQVVDWPSASPLKNPLTSIEQATDRVVNMPLVKGEPISMSKLAAKG”, the “soluble fraction (log2)” value is -0.296.
